Results from paper PMC6308234 (Scientific Reports, 2018).

Tests used:
[1] = target: T1, DENV-2 nonstructural protein 1 (NS1), recombinant (Dengue virus 2, strain …, UniProt P29990); test: SPR; details: both partners purified
T1 construct: also called DENV-2 NS1; NS1 from DENV-2; source: bought: Native Antigen Company (recombinant)

[2] = target: T2, DENV-3 nonstructural protein 1 (NS1), recombinant (Dengue virus 3, strain Sri …, UniProt Q6YMS4); test: SPR; details: both partners purified
T2 construct: also called DENV-3 NS1; NS1 from DENV-3; source: bought: Native Antigen Company (recombinant)

[3] = target: T3, DENV-1 nonstructural protein 1 (NS1), recombinant (Dengue virus 1, strain Nauru/West …, UniProt P17763); test: SPR; details: both partners purified
T3 construct: also called DENV-1 NS1; NS1 from DENV-1; source: bought: Native Antigen Company (recombinant)

[4] = target: T4, DENV-4 nonstructural protein 1 (NS1), recombinant (Dengue virus 4, strain …, UniProt P09866); test: SPR; details: both partners purified
T4 construct: also called DENV-4 NS1; NS1 from DENV-4; source: bought: Native Antigen Company (recombinant)

[5] = target: T5, DENV-4 nonstructural protein 1 (NS1), recombinant (dengue virus serotype 4 (DENV-4)); test: SPR; NS1 immobilized
T5 chain: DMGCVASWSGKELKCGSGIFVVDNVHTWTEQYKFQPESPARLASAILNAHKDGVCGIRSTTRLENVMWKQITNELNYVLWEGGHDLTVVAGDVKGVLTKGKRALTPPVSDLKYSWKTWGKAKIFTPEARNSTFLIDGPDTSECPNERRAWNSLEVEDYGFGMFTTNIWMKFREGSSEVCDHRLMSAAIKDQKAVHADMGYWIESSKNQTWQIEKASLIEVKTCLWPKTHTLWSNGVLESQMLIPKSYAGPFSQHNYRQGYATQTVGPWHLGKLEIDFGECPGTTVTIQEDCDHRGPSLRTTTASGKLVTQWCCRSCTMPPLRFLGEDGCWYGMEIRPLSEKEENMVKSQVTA

[6] = target: T6, DENV-3 nonstructural protein 1 (NS1), recombinant (dengue virus serotype 3 (DENV-3)); test: SPR; NS1 immobilized
T6 chain: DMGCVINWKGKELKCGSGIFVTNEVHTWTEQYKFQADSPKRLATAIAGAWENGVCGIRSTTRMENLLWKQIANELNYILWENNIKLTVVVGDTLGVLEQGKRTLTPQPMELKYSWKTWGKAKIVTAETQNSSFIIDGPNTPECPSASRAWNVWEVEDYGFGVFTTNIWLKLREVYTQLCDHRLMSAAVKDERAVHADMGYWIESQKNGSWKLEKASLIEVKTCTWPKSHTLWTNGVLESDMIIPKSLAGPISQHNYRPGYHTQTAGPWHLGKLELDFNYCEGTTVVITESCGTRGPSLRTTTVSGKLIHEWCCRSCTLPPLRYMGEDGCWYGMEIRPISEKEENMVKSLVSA

[7] = target: T7, DENV-2 nonstructural protein 1 (NS1), recombinant (dengue virus serotype 2 (DENV-2)); test: SPR; NS1 immobilized
T7 chain: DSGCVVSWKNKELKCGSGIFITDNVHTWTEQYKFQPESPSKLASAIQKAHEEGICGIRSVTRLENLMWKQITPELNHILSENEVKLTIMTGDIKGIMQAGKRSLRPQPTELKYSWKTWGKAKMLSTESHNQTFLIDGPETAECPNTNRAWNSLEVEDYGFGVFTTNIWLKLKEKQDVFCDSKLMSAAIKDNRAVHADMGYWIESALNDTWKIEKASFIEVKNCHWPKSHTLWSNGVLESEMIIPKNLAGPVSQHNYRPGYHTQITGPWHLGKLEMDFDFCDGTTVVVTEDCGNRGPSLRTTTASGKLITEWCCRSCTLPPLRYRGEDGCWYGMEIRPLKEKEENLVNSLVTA

[8] = target: T8, DENV-1 nonstructural protein 1 (NS1), recombinant (dengue virus serotype 1 (DENV-1)); test: SPR; NS1 immobilized
T8 chain: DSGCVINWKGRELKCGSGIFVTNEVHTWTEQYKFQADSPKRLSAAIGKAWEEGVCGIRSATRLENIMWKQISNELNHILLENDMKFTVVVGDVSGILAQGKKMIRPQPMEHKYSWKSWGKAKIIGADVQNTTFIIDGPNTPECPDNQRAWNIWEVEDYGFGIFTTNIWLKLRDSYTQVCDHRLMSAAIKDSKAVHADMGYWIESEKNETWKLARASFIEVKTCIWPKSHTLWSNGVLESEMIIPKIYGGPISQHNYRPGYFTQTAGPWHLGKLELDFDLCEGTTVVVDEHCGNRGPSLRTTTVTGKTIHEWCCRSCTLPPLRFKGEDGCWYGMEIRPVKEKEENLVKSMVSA

[9] = target: T7, DENV-2 nonstructural protein 1 (NS1), …; test: SPR; sdAb immobilized
[10] = target: T8, DENV-1 nonstructural protein 1 (NS1), …; test: SPR; sdAb immobilized
[11] = target: T1, DENV-2 nonstructural protein 1 (NS1), …; test: SPR; details: both partners purified; remark: listed apart in the source
[12] = target: T2, DENV-3 nonstructural protein 1 (NS1), …; test: SPR; details: both partners purified; remark: listed apart in the source
[13] = target: T3, DENV-1 nonstructural protein 1 (NS1), …; test: SPR; details: both partners purified; remark: listed apart in the source
[14] = target: T4, DENV-4 nonstructural protein 1 (NS1), …; test: SPR; details: both partners purified; remark: listed apart in the source
[15] = target: T1, DENV-2 nonstructural protein 1 (NS1), …; test: MagPlex (Luminex) bead assay, direct binding; details: both partners purified
[16] = target: T7, DENV-2 nonstructural protein 1 (NS1), …; test: SPR; sdAb immobilized

Row | Binder | Kd [1] | Kd [2] | Kd [3] | Kd [4] | koff [5] | koff [6] | koff [7] | koff [8] | koff [9] | koff [10] | Kd [11] | Kd [12] | Kd [13] | Kd [14] | binding result [1] | binding result [3] | binding result [4] | binding result [15] | Kd [16]
1 | sdAb DC4 (VHH, source: E. coli Turner (DE3), pET22b, periplasmic, purified (Ni-Sepharose, SEC)) VHH: EVQLQASGGGLVQAGGSLRLSCAASERTFSHYFVGWFRQAPGKEREFVARITWSGSNVEYEDAVKDRFTLSSDNAKNTVYLHMNSLKPEDTAVYYCAAANTIWTPTIRDYNVWGQGTQVTVSS | 42.1 nM | 31.6 nM | 62 nM | 43 nM | 0.00501 s⁻¹ | 0.00741 s⁻¹ | 0.00604 s⁻¹ | 0.00889 s⁻¹ |  |  |  |  |  |  |  |  |  |  | 
2 | sdAb DH12 (VHH, source: E. coli Turner (DE3), pET22b, periplasmic, purified (Ni-Sepharose, SEC)) VHH: EVQLVESGGGSVQAGGSLRLSCAASERTFSYYFMGWFRQAPGKEREWVARIRWNGDGADYTDAVKDRFTISSDHAKNTVYLQMNSLKPEDTAVYYCAAANSIWKPTTRDYNYWGQGTQVSVSS | 9.8 nM | 12.4 nM | 14.4 nM | 20.9 nM | 0.00604 s⁻¹ | 0.00323 s⁻¹ | 0.00333 s⁻¹ | 0.00658 s⁻¹ |  |  |  |  |  |  |  |  |  |  | 
3 | sdAb DD1 (VHH, source: E. coli Turner (DE3), pET22b, periplasmic, purified (Ni-Sepharose, SEC)) VHH: EVQLQASGGGLVQAGGSLRVSCAATGIAFASYAVAWYRQAPGKQREWVATVGGLGGTKYVDSVKGRFTISRDNAKNAVTLQMNSLKPEDTAVYYCAAVEWDDGHYYWDTWGQGTRVTVSA | 15 nM | 85.8 nM | 28.5 nM | 7.8 nM |  |  |  |  | 0.000182 s⁻¹ | 0.000206 s⁻¹ | 2.3 nM | 17.7 nM | 2.2 nM | 0.6 nM |  |  |  |  | 
4 | sdAb DH4 (VHH, source: E. coli Turner (DE3), pET22b, periplasmic, purified (Ni-Sepharose, SEC)) VHH: DVQLQASGGGVVQAGGSLRVSCAATGIAFASYAVAWYRQAPGKQREWVATVGGLGGTKYVDSVRGRFTISRDNAKNAVTLQMNSLKPEDTAVYYCAAVEWDDGHYYWDTWGQGTRVTVSA | 8.5 nM | 23.8 nM | 10.3 nM | 8.5 nM |  |  |  |  |  |  |  |  |  |  |  |  |  |  | 
5 | sdAb DB5 (VHH, source: E. coli Turner (DE3), pET22b, periplasmic, purified (Ni-Sepharose, SEC)) VHH: DVQLQASGGGLVQDGGSLRLSCAASGLGFRIHSMGWYRQAPGKARDLVAVITDSGQTNYAPSVKGRFTISRESAGNTVYLQMNSLKPDDTAVYYCAVTTWDPHSYWGQGTQVTVSS |  | 4.4 nM |  |  |  |  |  |  |  |  |  | 1.6 nM |  |  | no binding (tested: typically up to 300 nM) | no binding (tested: typically up to 300 nM) | no binding (tested: typically up to 300 nM) |  | 
6 | biotinylated sdAb DB5 (VHH, also called Bt-DB5) VHH: DVQLQASGGGLVQDGGSLRLSCAASGLGFRIHSMGWYRQAPGKARDLVAVITDSGQTNYAPSVKGRFTISRESAGNTVYLQMNSLKPDDTAVYYCAVTTWDPHSYWGQGTQVTVSS |  |  |  |  |  |  |  |  |  |  |  |  |  |  |  |  |  | no binding | 
7 | sdAb DD5 (VHH, source: E. coli Turner (DE3), pET22b, periplasmic, purified (Ni-Sepharose, SEC)) VHH: EVQLQASGGGLVQAGGSLRLSCAASGRAFSSETMGWFRQAPGKEREFVAAIWRIGGSTYNTDYADSVKGRFAISADRAKNTVDLQMNTLKPEDTAVYYCAGKMRGRSVNLYDYDYWGQGTQVTVSS | 4.5 nM | 3.2 nM | 2.8 nM | 24 nM | 0.00193 s⁻¹ | 0.000269 s⁻¹ | 0.000347 s⁻¹ | 0.000383 s⁻¹ | 7.99e-05 s⁻¹ | 0.000318 s⁻¹ | 0.9 nM | 25.1 nM | 4.2 nM | 6.2 nM |  |  |  |  | 
8 | sdAb DD9 (VHH, source: E. coli Turner (DE3), pET22b, periplasmic, purified (Ni-Sepharose, SEC)) VHH: EVQLQASGGGLVQAGGSLRVSCAASGIAFTNYALAWYRQPPGKQREWVATVGVLGGTKYADSVKGRFAISRDNAKNTVILQMNSLKPVDTAVYFCAAVEWSNGRYYWDSWGQGTQVTVSA | 6.7 nM | 21.8 nM | 18 nM | 34.8 nM | 0.00428 s⁻¹ | 0.000951 s⁻¹ | 0.000545 s⁻¹ | 0.00141 s⁻¹ | 0.00034 s⁻¹ | 0.000289 s⁻¹ | 3.5 nM | 3.1 nM | 2.7 nM | 7.1 nM |  |  |  |  | 
9 | sdAb DC7 (VHH, source: E. coli Turner (DE3), pET22b, periplasmic, purified (Ni-Sepharose, SEC)) VHH: EVQLQASGGGSVQAGGSLRLSCAHSSITVPDYTIGWYRRAPGKGGEEVSLISMHGGRTWYAGSVKGRFAISRDSVKNTVYLQMNNLKPEDTDIYYCGGTTFGLAAAPNEYDSWGQGSQVTVSS | 2.6 nM | 1.2 nM | 9.1 nM | 2.2 nM |  |  |  |  | 0.000155 s⁻¹ | 0.00021 s⁻¹ | 0.6 nM | 1.7 nM | 0.8 nM | 0.7 nM |  |  |  |  | 0.556 nM
10 | sdAb DD7 (VHH, source: E. coli Turner (DE3), pET22b, periplasmic, purified (Ni-Sepharose, SEC)) VHH: EVQLVQSGGGSVQAGGSLRLSCAHSSITVPDYTIGWFRRAPGKGGEEVSLISMHGGRSWYAGSVKGRFAISRDSVKNTVYLQMNNLKPEDTDIYYCGGTTFGLAAAPNEYDSWGQGSQVTVSS | 20.3 nM | 7 nM | 5.4 nM | 2.4 nM |  |  |  |  | 0.000435 s⁻¹ | 0.000423 s⁻¹ | 1.5 nM | 2.4 nM | 1.7 nM | 1.1 nM |  |  |  |  | 
11 | sdAb DD6 (VHH, source: E. coli Turner (DE3), pET22b, periplasmic, purified (Ni-Sepharose, SEC)) VHH: EVQLQASGGGSVQAGGSLRLSCAHSSITVPDYTIGWYRRAPGKGGEEVSLISMHGGRTWYAGSVKGRFAISRDSVKNTVYLQMNNLKPEDTDIYYCGGTTFGLAAAPNEYDSWGQGSQVTVSS | 2 nM | 1.1 nM | 7.6 nM | 2.5 nM |  |  |  |  |  |  |  |  |  |  |  |  |  |  | 
